According to paper PMC10057847, “Precision engineering of biological function with large-scale measurements and machine learning” (PLOS ONE, 2023):
Numbering of substitutions follows the chain as printed. In names and notes the source's numbering stands.

B1: pVER-IPTG-084: LacI variant: A92I S269T N333H L346* (protein, UniProt P03023 1-360, looked up, variant A92I S269T N333H L346*)
Lactose operon repressor: MKPVTLYDVAEYAGVSYQTVSRVVNQASHVSAKTREKVEAAMAELNYIPNRVAQQLAGKQSLLIGVATSSLALHAPSQIVAAIKSRADQLGISVVVSMVERSGVEACKAAVHNLLAQRVSGLIINYPLDDQDAIAVEAACTNVPALFLDVSDQTPINSIIFSHEDGTRLGVEHLVALGHQQIALLAGPLSSVSARLRLAGWHKYLTRNQIQPIAEREGDWSAMSGFQQTMQMLNEGIVPTAMLVANDQMALGAMRAITESGLRVGADITVVGYDDTEDSSCYIPPLTTIKQDFRLLGQTSVDRLLQLSQGQAVKGNQLLPVSLVKRKTTLAPHTQTASPRALADSMQLARQVSRLESGQ
B2: pVER-IPTG-004(V136E): LacI variant: A87P V136E V301M E357G (protein, UniProt P03023 1-360, looked up, variant A87P V136E V301M E357G)
Lactose operon repressor: MKPVTLYDVAEYAGVSYQTVSRVVNQASHVSAKTREKVEAAMAELNYIPNRVAQQLAGKQSLLIGVATSSLALHAPSQIVAAIKSRPDQLGASVVVSMVERSGVEACKAAVHNLLAQRVSGLIINYPLDDQDAIAEEAACTNVPALFLDVSDQTPINSIIFSHEDGTRLGVEHLVALGHQQIALLAGPLSSVSARLRLAGWHKYLTRNQIQPIAEREGDWSAMSGFQQTMQMLNEGIVPTAMLVANDQMALGAMRAITESGLRVGADISVVGYDDTEDSSCYIPPLTTIKQDFRLLGQTSMDRLLQLSQGQAVKGNQLLPVSLVKRKTTLAPNTQTASPRALADSLMQLARQVSRLGSGQ
B3: pVER-IPTG-WT(S70R/V271M): LacI variant: S70R V271M (protein, UniProt P03023 1-360, looked up, variant S70R V271M)
Lactose operon repressor: B2 Lactose operon repressor with S70R, P87A, E136V, V271M, M301V, G357E
B4: pVER-IPTG-206: LacI variant: V95M A337T (protein, UniProt P03023 1-360, looked up, variant V95M A337T)
Lactose operon repressor: B2 Lactose operon repressor with P87A, V95M, E136V, M301V, A337T, G357E
B5: pVER-IPTG-002(V136E): LacI variant: V96E V136E T154I S158R V238D M254I V264I (protein, UniProt P03023 1-360, looked up, variant V96E V136E T154I S158R V238D M254I V264I)
Lactose operon repressor: B2 Lactose operon repressor with P87A, V96E, T154I, S158R, V238D, M254I, V264I, M301V, G357E
B6: pVER-IPTG-WT(F161V): LacI variant: F161V (protein, UniProt P03023 1-360, looked up, variant F161V)
Lactose operon repressor: B2 Lactose operon repressor with P87A, E136V, F161V, M301V, G357E
B7: pVER-IPTG-WT(L56M/A194V): LacI variant: L56M A194V (protein, UniProt P03023 1-360, looked up, variant L56M A194V)
Lactose operon repressor: B2 Lactose operon repressor with L56M, P87A, E136V, A194V, M301V, G357E
B8: pVER-IPTG-144: LacI variant: V15I F161I A266T K290R M347I (protein, UniProt P03023 1-360, looked up, variant V15I F161I A266T K290R M347I)
Lactose operon repressor: B2 Lactose operon repressor with V15I, P87A, E136V, F161I, A266T, K290R, M301V, M347I, G357E
B9: pVER-IPTG-008: LacI variant: S61L I237T T258S A266T I289F R351* (protein, UniProt P03023 1-360, looked up, variant S61L I237T T258S A266T I289F R351*)
Lactose operon repressor: MKPVTLYDVAEYAGVSYQTVSRVVNQASHVSAKTREKVEAAMAELNYIPNRVAQQLAGKQLLLIGVATSSLALHAPSQIVAAIKSRADQLGASVVVSMVERSGVEACKAAVHNLLAQRVSGLIINYPLDDQDAIAVEAACTNVPALFLDVSDQTPINSIIFSHEDGTRLGVEHLVALGHQQIALLAGPLSSVSARLRLAGWHKYLTRNQIQPIAEREGDWSAMSGFQQTMQMLNEGTVPTAMLVANDQMALGAMRAISESGLRVGTDISVVGYDDTEDSSCYIPPLTTFKQDFRLLGQTSVDRLLQLSQGQAVKGNQLLPVSLVKRKTTLAPNTQTASPRALADSLMQLAQVSRLESGQ
B10: pVER-IPTG-003: LacI variant: V52M H74Y V119I G200V R207H L262M K290R Q306H A337V Q352* (protein, UniProt P03023 1-360, looked up, variant V52M H74Y V119I G200V R207H L262M K290R Q306H A337V Q352*)
Lactose operon repressor: MKPVTLYDVAEYAGVSYQTVSRVVNQASHVSAKTREKVEAAMAELNYIPNRMAQQLAGKQSLLIGVATSSLALYAPSQIVAAIKSRADQLGASVVVSMVERSGVEACKAAVHNLLAQRISGLIINYPLDDQDAIAVEAACTNVPALFLDVSDQTPINSIIFSHEDGTRLGVEHLVALGHQQIALLAGPLSSVSARLRLAVWHKYLTHNQIQPIAEREGDWSAMSGFQQTMQMLNEGIVPTAMLVANDQMALGAMRAITESGMRVGADISVVGYDDTEDSSCYIPPLTTIRQDFRLLGQTSVDRLLHLSQGQAVKGNQLLPVSLVKRKTTLAPNTQTVSPRALADSLMQLARVSRLESGQ
B11: pVER-IPTG-WT(Q291L): LacI variant: Q291L (protein, UniProt P03023 1-360, looked up, variant Q291L)
Lactose operon repressor: B2 Lactose operon repressor with P87A, E136V, Q291L, M301V, G357E
B12: pVER-IPTG-138: LacI variant: S28G T34M Q60R A81S E100K L148V S221N V271L (protein, UniProt P03023 1-360, looked up, variant S28G T34M Q60R A81S E100K L148V S221N V271L)
Lactose operon repressor: MKPVTLYDVAEYAGVSYQTVSRVVNQAGHVSAKMREKVEAAMAELNYIPNRVAQQLAGKRSLLIGVATSSLALHAPSQIVSAIKSRADQLGASVVVSMVKRSGVEACKAAVHNLLAQRVSGLIINYPLDDQDAIAVEAACTNVPALFVDVSDQTPINSIIFSHEDGTRLGVEHLVALGHQQIALLAGPLSSVSARLRLAGWHKYLTRNQIQPIAEREGDWNAMSGFQQTMQMLNEGIVPTAMLVANDQMALGAMRAITESGLRVGADISVLGYDDTEDSSCYIPPLTTIKQDFRLLGQTSVDRLLQLSQGQAVKGNQLLPVSLVKRKTTLAPNTQTASPRALADSLMQLARQVSRLESGQ
B13: pVER-IPTG-WT(G200C): LacI variant: G200C (protein, UniProt P03023 1-360, looked up, variant G200C)
Lactose operon repressor: B2 Lactose operon repressor with P87A, E136V, G200C, M301V, G357E
B14: pVER-IPTG-081: LacI variant: P285S V301M S308P M347V (protein, UniProt P03023 1-360, looked up, variant P285S V301M S308P M347V)
Lactose operon repressor: B2 Lactose operon repressor with P87A, E136V, P285S, S308P, M347V, G357E
B15: pVER-IPTG-WT(I83M): LacI variant: I83M (protein, UniProt P03023 1-360, looked up, variant I83M)
Lactose operon repressor: B2 Lactose operon repressor with I83M, P87A, E136V, M301V, G357E

These molecules were tested on eYFP under the control of the lactose operator (lacO) (assay: in vivo dose-response curves of LacI variants to IPTG measured with flow cytometry (eYFP output), fit to the Hill equation). Settings: IPTG as ligand, Hill fit of cytometry data, posterior mean; read-out: log_ec50: the base-10 logarithm of EC50 (converted).
Type: cell-based, E. coli
Protocol: Dose-response curves were measured with flow cytometry using E. coli MG1655Δlac transformed with variants of the pVER plasmid, described previously. The plasmid contained different variants of the lacI coding DNA sequence (CDS), as described in the text, and an expression cassette with enhanced yellow fluorescent protein (eYFP) under the control of the lactose operator (lacO). The lacI CDS was verified with Sanger sequencing for each variant.
All cultures were grown in a rich M9 media (3 g/L KH2PO4, 6.78 g/L Na2HPO4, 0.5 g/L NaCl, 1 g/L NH4Cl, 0.1 mmol/L CaCl2, 2 mmol/L MgSO4, 4% glycerol, and 20 g/L casamino acids) supplemented with 50 μg/mL kanamycin.
For flow cytometry measurements, E. coli cultures were grown in a laboratory automation system that included an automated liquid handler (Hamilton, STAR), an automated plate sealer (4titude, a4S), an automated de-sealer (Brooks, XPeel), and two multi-mode plate readers (BioTek, Neo2SM).
Cultures were grown in clear polystyrene 96-well plates with 1.1 mL square wells (4titude, 4ti-0255). The culture volume per well was 0.5 mL. Before incubation, each 96-well growth plate was sealed by the automated plate sealer with a gas permeable membrane (4titude, 4ti-0598). Growth plates were incubated in one of the multi-mode plate readers at 37°C with a 1°C gradient applied from the bottom to the top of the incubation chamber to minimize condensation on the inside of the membrane. The plate readers were set for double-orbital shaking at 807 cycles per minute. Optical density at 600 nm (OD600) was measured every 5 minutes during incubation, with continuous shaking applied between measurements (optical density at 700 nm and YFP fluorescence were also measured every 5 minutes). After incubation, the automated de-sealer was used to remove the gas-permeable membrane from each 96-well plate to enable automated passaging of cultures and sample preparation for flow cytometry measurements.
For each measurement, starter cultures were prepared from glycerol freezer stock in 5 mL of rich M9 media in a 14 mL snap-cap culture tubes. Starter cultures were incubated at 37°C with orbital shaking at 300 rpm for between 4 h and 24 h prior to loading the automation system. The automation system then prepared 96-well growth plates, sealed and de-sealed the growth plates, incubated the growth plates, and prepared flow cytometry sample plates. The automated culture protocol consisted of the following steps: […]

Molecule | EC50 [nM]
B1 | 1520

Same assay, conditions: IPTG dose-response, Hill fit of cytometry data

Molecule | n: the Hill coefficient
B2 | 1.631
B3 | 1.459
B4 | 1.594
B5 | 2.088
B6 | 1.594
B7 | 1.42
B8 | 1.459
B9 | 1.488
B10 | 0.7133
B1 | 1.53

Same assay, conditions: basal output, Hill fit of cytometry data, posterior mean; value is log10

Molecule | log_g0: the base-10 logarithm of G0 (in MEF) [MEF]
B2 | 4.54
B5 | 4.551
B9 | 4.293
B10 | 4.508
B1 | 3.264

Same assay, conditions: saturating output, Hill fit of cytometry data, posterior mean; value is log10

Molecule | log_ginf: the base-10 logarithm of G∞ (in MEF) [MEF]
B11 | 4.407
B12 | 4.407
B2 | 1.925
B3 | 4.268
B13 | 4.489
B14 | 4.489
B5 | 1.924
B15 | 4.268
B9 | 3.274
B10 | 3.573
B1 | 4.457
